The record followed here is patent US20110293610A1 (published 2011).

Positions count from the first letter of the chain named.

This assay addresses T1, biotinylated B Lymphocyte Stimulator, soluble form (human, UniProt Q9Y275 134-285, biotinylated with NHS-biotin, molar ratio 20:1 biotin:protein).
T1 construct: also called bio-B Lymphocyte Stimulator; free B Lymphocyte Stimulator
The assay is described as follows: phage scFv, receptor binding inhibition on IM9 cells. On the procedure:
Fifty-five μl of each appropriate phage supernatant was added to each well and the final volume in each well was 65 μl. Plates were then incubated at room temperature for 30 minutes.
Plates were washed three times in PBST and three times in PBS, tapped dry and 50 μl of streptavidin-Delfia (Wallac) was added to each well at 1:1000 dilution in the Manufacturer's assay buffer. The plates were then incubated at room temperature for 1 hour and washed six times in Delfia wash solution (Wallac). After tapping the plates dry, 100 μl per well of Delfia enhancement solution (Wallac) was added. The plates were gently tapped to encourage micelle formation, incubated at room temperature for 10 minutes, and fluorescence read on a Wallac 1420 workstation at […].

B1: I031F02 (scFv)
scFv: QVQLVQSGAEVRKPGSSVKVSCKASGGSFSSHVFSWVRQAPGQGLEWVGGITPKFATPNYAQKFQHRVTITADELTRTVFMDLSGLRSEDTAVYYCARGYDSSAFRAFDIWGQGTMVTVSSGGGGSGGGGSGGGGSAQSVLTQPPSVSGAPGQRVTISCTGSSSNIGAGYDVQWYQQLPGTAPKLLIHGNNNRPSGVPDRFSGSKSGTSASLAITGLQDEDEADYYCQSYDSSLSFSGYVFGTGTKVTVLG
As for B1, the binding result was “binds”.

B2: I017D10 (scFv)
scFv: RVQLVQSGAEVKKPGASVKVSCKASGYTFTSDHISWVRQAPGQGLEWMGWISPHHGKTNYAQKLQGRVTMTTDTSTSTAYMELRSLRSDDTAVYYCARVQMDSEYYDLLTGINVGPYYFDYWGKGTLVTVSSGGGGSGGGGSGGGGSSELTQDPAVSVALGQTVRITCQGDSLRSYYASWYQQKPGQAPVLVIYGKNNRPSGIPDRFSGSSSGNTASLTITGAQAEDEADYYCNSRDSSGNHVVFGGGTKLTVLG
On to B2, for which the binding result is given as “binds”.

B3: I008B01 (scFv)
scFv: QVQLVQSGAEVMKPGASVKVSCKASGYNFNNYAMQWVRQAPGQRLEWMGWIVPGNGKTKYSQKFQDRVTIARDTSASTVYMELSSLTSEDTAMYYCARATYDPLTGYSFDGFDIWGQGTTVTVSSGGGGSGGGGSGGGGSQSVLTQPASVSGSPGQSITISCTGTSSDVGGYNYVSWYQQHPGKAPKLMIYEGSKRPSGVSNRFSGSKSGNTASLTISGLQAEDEADYYCSSYTTRSTRVFGGGTKLTVLG
In the case of B3, the binding result is on record as “binds”.

B4: I018C02 (scFv)
scFv: QVQLQQSGSELKKPGASVIVSCKVSGYSLTKMSMHWVRQSPGEGLEWVGGIDPETRQPVYAQKFQGRVTITKDTSASAAYMELSSLGSEDTALYYCARATYDPLTGYSFDGFDIWGQGTLVTVSSGGGGSGGGGSGGGGSQSVLTQPASVSGSPGQSITISCTGTSSDVGGYNYVSWYQQHPGKAPKLMIYEGSKRPSGVSNRFSGSKSGNTASLTISGLQAEDEADYYCSSYTTRSTRVFGGGTKLTVLG
For B4, the binding result was “binds”.

B5: I016F04 (scFv)
scFv: B4 scFv with I19K
Turning to B5, the binding result is reported as “binds”.

B6: I006D07 (scFv)
scFv: EVQLVESGGGVVQPGGSLRLSCAASGFTVNSYAMHWVRQAPGKGLQWVAVIPYDGSKKYYADSVKGRFTVSRDNSKNTLYLQMNSLRAEDTAVYYCARSHYDILTGLNYWYFDLWGRGTLVTVSSGGGGSGGGGSGGGGSSELTQDPAVSVALGQTVRITCQGDSLRSYYASWYQQKPGQAPVLVIYGKNNRPSGIPDRFSGSSSGNTASLTITGAQAEDEADYYCNSRGSSGNHVVFGGGTKLTVLG
Regarding B6, the binding result is “binds”.

B7: I031F09 (scFv)
scFv: QVQLVQSGAEVKKPGASVKVSCTVSGDSFSRHGISWVRQAPGQGLEWMGWISVYNGDTKYAQKVQGRVTMTTDTSTNTVYMELRRLRSDDTAVYYCARDEGRDLLTGYYWPNFFDSWGRGTLVTVSSGGGGSGGGGSGGGGSALSYVLTQPPSASGTPGQRVTISCSGSRPNIGGNTVNWYQQLPGAAPKLLIYSNSQRPSGVPDRFSGSKYGTSASLAISGLQSDDEADYYCAAWDDSLTGPVFGGGTKLTVLG
On to B7, for which the binding result was “binds”.

B8: I031G11 (scFv)
scFv: B7 scFv with A154V, R161K
Turning to B8, the binding result is “binds”.

B9: I007B03 (scFv)
scFv: GVQLQQSGAEVKKPGSSVKVSCKASGGTFNTSGITWVRQAPGQGLEWMGWMNPNTGDTAYAQEFQGRVIMTRDTSISTAYMELSSLRSEDTAVYYCARDGSYDILTGYYIDNYMDVWGQGTMVTVSSGGGGSGGGGSGGGGSQSVLTQPASVSGSPGQSITISCTGTSSDVGGYNYVSWYQQHPGKAPKLMIYEGSKRPSGVSNRFSGSKSGNTASLTISGLQAEDEADYYCSSYTTRSTRVFGGGTKLTVLG
For B9, the binding result was “binds”.

B10: I026E03 (scFv)
scFv: EVQLVQSGGEVKRPGASVKVSCKASGYTFSRYGISWVRQAPGQGLEWMGWISAYNGKTSFAEKFQGRVTLTTDTSTTTVDMELRNLRSDDTAVYYCARTDYDILTGYPMGYFDPWGKGTLVTVSSGGGGSGGGGSGGGGSALSSELTQDPAVSVALGQTVKITCQGDSLRSFYAAWYQQKPGQAPILVISGKNNRPSGIPDRFSGSSSGNTASLTITGAQAEDEADYYCNSRDTSGNHYVFGAGTKLTVLG
In the case of B10, the binding result is “binds”.

B11: I001C09 (scFv)
scFv: GVQLVQSGPEVKKPGASVKVSCTASGYTFTSYGVSWVRQAPGQGLEWIGWISAHNGQTKYAEKFQGRVTMTRNTSISTAYMELSSLRSEDTAVYYCARDGSYDILTGYYIDNYMDVWGKGTMVTVSSGGGGSGGGGSGGGGSSELTQDPAVSVALGQTVRITCQGDSLRSYYTNWFQQKPGQAPLLVVYAKNKRPSGIPDRFSGSSSGNTASLTITGAQAEDEADYYCHSRDSSGNHVLFGGGTKLTVLG
Take B11: the binding result is “binds”.

B12: I018C10 (scFv)
scFv: B11 scFv with A92V
Consider B12, for which the binding result was “binds”.

B13: I018D07 (scFv)
scFv: B11 scFv with K19I
As for B13, the binding result is “binds”.

B14: I006D08 (scFv)
scFv: QVQLQQSGAEVKKPGSSVRVSCKASGGTFNNNAINWVRQAPGQGLEWMGGIIPMFGTAKYSQNFQGRVAITADESTSTASMELSSLRSEDTAVYYCARSRDLLLFPHYGMDVWGRGTMVTVSSGGGGSGGGGSGGGGSAFSSELTQDPAVSVALGQTVRVTCQGDSLRSYYASWYQQKPGQAPVLVIYGKNNRPSGIPDRFSGSSSGNTASLTITGAQAEDEADYYCNSRDSSGNHWVFGGGTELTVLG
In the case of B14, the binding result is given as “binds”.

B15: I016E05 (scFv)
scFv: QVQLQQSGAEVKKPGASVKVSCKASGYTFTKYTMHWVRQAPGQGPEWMGWINGGSGDTKYSRKFQGRVTITKDTSASAAYMELSSLGSEDTALYYCARATYDPLTGYSFDGFDIWGKGTMVTVSSGGGGSGGGGSGGGGSQSALTQPASVSGSPGQSITISCTGTSSDVGGYNYVSWYQQHPGKAPKLMIYEGSKRPSGVSNRFSGSKSGNTASLTISGLQAEDEADYYCSSYTTRSTRVFGGGTKLTVLG
Regarding B15, the binding result is “binds”.

B16: I018H09 (scFv)
scFv: B15 scFv with A79T, A143V
Turning to B16, the binding result is on record as “binds”.

B17: I018H08 (scFv)
scFv: B15 scFv with K19N, K117Q, A143V, V249I
notes: also called 1018H08
B17: the binding result was “binds”.

B18: I008A09 (scFv)
scFv: GVQLVQSGGGVVQPGGSLRLSCAASGFTFSSYGMHWVRQAPGKGLEWVAVISYDGSNKYYADSVKGRFTISRDNSKNTLYLQMNSLRAEDTAVYYCARDREAYYDILTGYYLYYYYMDVWGRGTTVTVSSGGGGSGGGGSGGGGSQSVLTQPASVSGSPGQSITISCTGTSSDVGGYNYVSWYQQHPGKAPKLMIYEGSKRPSGVSNRFSGSKSGNTASLTISGLQAEDEADYYCSSYTTGSTRVFGGGTKLTVLG
Turning to B18, the binding result is on record as “binds”.
